The target in test [1] is CXCL12. Kind of test: Bio-Layer Interferometry (BLI). (Biolayer interferometry detects binding as a change in optical thickness at a sensor tip.)
The target of test [2] is CXCL12. Kind of test: Bio-Layer Interferometry, CXCL12 immobilized on the AR2G biosensor, CXCL12 trap at 500, 250 and 125 nM.
The target of test [3] is CXCL12. In words: Bio-Layer Interferometry; CXCL12 immobilized on AR2G biosensor, different concentrations of CXCL12 trap.
Test [4] concerns the target CXCL12. In words: cell-based or functional assay.

B1: CXCL12 trap (engineered VH-linker-VL fusion protein, expressed in and purified from 293T cells) (scFv, V domains shown, not shown: small tags and cut ends)
VH: EVQLVESGGGLVQPGGSLRLSCAASGFSLTVYSVHWVRQAPGKGLEWVGALWGSGGTEYNSNLKSRFTISRDTSKNTVYLQMNSLRAEDTAVYYCARDQGLNYGSLFDYWGQGTLVTVSS
VL: DIQMTQSPSSLSASVGDRVTITCRASESISYSLSWYQQKPGKAPKLLIYNAVKLESGVPSRFSGSGSGTDFTLTISSLQPEDFATYYCKQYWNTPFTFGQGTKVEIKR
modifications: flexible linker; C-terminal E tag, His6 tag
For B1, the dissociation constant (Kd) – broadly, the constant that tells how readily two partners part at equilibrium – with CXCL12 [1] is 4 nM. For the same molecule, in the test with CXCL12 [2], the Kd is 4.1 nM, the off-rate (koff) (commonly a measure of how fast the partners let go of each other) was 3.64e-05 s⁻¹ and the kon (usually the rate constant with which the complex forms) is 8850 M⁻¹ s⁻¹. In the test with CXCL12 [3], this molecule came in with a Kd of 4 nM. In the test with CXCL12 [4], this molecule had an invasion of CT-26 FL3 cells stimulated with CXCL12 (100.0 ng/ml) of 12 µg/mL, a migration of CT-26 FL3 cells stimulated with CXCL12 (100.0 ng/ml) of 8 µg/mL, an one-half maximal inhibition [ND50] against biological active CXCL12 (100 ng/ml) in vitro of 120 nM and an one-half maximal inhibition [ND50] of CT-26 FL3 cell migration stimulated with CXCL12 (100 ng/ml) of 120 nM.

Values taken from patent US20190381184A1.
